The supplement of paper PMC11136658

Tested on: peptide library, one residue held at a place counted from the Y acceptor
Test: relative phosphorylation of the sub-library (ratio to the mean residue at this position); higher = residue favoured
Procedure, shortened: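 Purified recombinant kinases were incubated for 90 min in 384-well plates with biotinylated Tyr-centred peptide library mixtures, each fixing one residue at one position from −5 to +5, plus 50 μM ATP with γ-32P-ATP. Peptides were captured on streptavidin membranes, rinsed and quantified by phosphorimaging and ImageQuant. Intensities were normalized per position by the sum of the 18 (or 16, Ser/Thr-free library) randomized residues and multiplied by that number. Values give phosphorylation relative to the mean randomized residue.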

Chain of JAK1, construct: aa866-end, human (P23458 866-1154, looked up): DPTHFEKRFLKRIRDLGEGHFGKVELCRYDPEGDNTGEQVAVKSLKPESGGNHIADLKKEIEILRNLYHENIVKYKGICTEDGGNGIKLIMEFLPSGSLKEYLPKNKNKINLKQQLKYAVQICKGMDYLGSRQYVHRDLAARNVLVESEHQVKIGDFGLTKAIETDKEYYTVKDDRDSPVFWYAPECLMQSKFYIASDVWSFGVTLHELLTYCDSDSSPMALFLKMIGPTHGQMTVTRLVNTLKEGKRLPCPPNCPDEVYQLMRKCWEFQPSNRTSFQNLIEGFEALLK
Chain of IGF1R, construct: aa960-end, human (P08069 960-1367, looked up): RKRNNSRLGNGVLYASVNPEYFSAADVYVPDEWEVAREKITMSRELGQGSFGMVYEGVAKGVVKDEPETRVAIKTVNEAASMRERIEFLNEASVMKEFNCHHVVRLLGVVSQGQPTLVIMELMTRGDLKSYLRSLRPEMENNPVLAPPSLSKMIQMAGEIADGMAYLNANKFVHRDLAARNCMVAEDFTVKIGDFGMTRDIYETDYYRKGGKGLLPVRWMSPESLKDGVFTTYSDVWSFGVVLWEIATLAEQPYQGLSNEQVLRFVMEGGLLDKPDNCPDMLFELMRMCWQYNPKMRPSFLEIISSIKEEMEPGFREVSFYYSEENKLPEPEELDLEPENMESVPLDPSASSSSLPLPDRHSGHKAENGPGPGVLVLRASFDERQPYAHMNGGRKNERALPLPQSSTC

IGF1R, construct: aa960-end, human (from UniProt P08069)
relative phosphorylation
Conditions	at +1	at +2	at +3	at +4	at +5	at -1	at -2	at -3	at -4	at -5
A fixed	1.7	0.629	0.386	0.818	0.794	1.07	1.11	0.892	1.01	0.847
D fixed	0.473	0.626	0.286	1.12	0.708	3.28	1.46	1.52	1.41	1.33
E fixed	0.838	1.42	0.255	1.68	0.671	1.61	1.71	1.77	1.86	1.05
F fixed	1.68	1.48	2	1.45	2.54	0.717	0.697	1.1	1.05	1.01
G fixed	0.585	0.273	0.367	0.844	0.83	0.547	1.18	0.991	1.03	1.06
H fixed	1.42	0.838	1.57	1.19	1.03	0.864	0.937	1.05	0.915	0.963
I fixed	1.28	1.15	1.94	0.843	0.91	1.2	0.736	0.654	0.819	0.997
K fixed	0.216	0.408	0.307	0.679	0.648	0.21	0.8	0.711	0.863	0.983
L fixed	1.08	1.59	1.35	0.694	1.02	0.964	0.839	0.798	0.886	0.916
M fixed	2.42	1.67	1.43	1.01	0.951	0.744	0.651	0.853	0.875	0.954
N fixed	0.319	0.74	0.288	0.787	0.764	1.83	1.34	1.4	0.971	1.12
P fixed	0.311	0.589	0.291	0.796	1.62	1.11	1.1	0.914	0.98	1.06
Q fixed	0.646	0.733	0.353	1.12	0.674	0.663	1.16	0.922	1.14	1.09
R fixed	0.178	0.588	0.433	0.799	0.914	0.239	0.893	0.899	0.977	1.12
S fixed	0.879	0.659	0.423	0.883	0.841	0.75	1.16	1.01	0.82	0.858
T fixed	0.755	0.661	0.525	0.86	0.704	0.778	0.86	0.973	0.645	0.864
V fixed	1.51	1.13	1.21	0.873	0.695	0.966	0.739	0.652	0.787	0.788
W fixed	1.71	2.83	4.6	1.55	1.68	0.451	0.63	0.901	0.967	0.983
pThr fixed	1.78	0.865	0.247	0.783	0.704	2.1	1.17	1.37	1.18	1.1
pTyr fixed	1.8	2.89	0.461	1.93	0.573	6.45	2.12	1.56	1.65	1.48

JAK1, construct: aa866-end, human (from UniProt P23458)
relative phosphorylation
Conditions	at +1	at +2	at +3	at +4	at +5	at -1	at -2	at -3	at -4	at -5
A fixed	0.719	1.02	0.75	0.954	1.06	1.36	1.03	1.03	1.2	1.05
D fixed	0.171	0.329	0.239	0.618	0.655	0.907	0.905	0.919	0.963	0.916
E fixed	0.237	0.402	0.195	0.79	0.649	1.08	0.81	0.891	1.02	0.871
F fixed	2.15	0.807	1.02	1.08	1.09	1.11	0.81	1.1	1.23	1.03
G fixed	0.385	0.788	0.879	1.19	1.19	1.44	1.21	1.11	1.19	1.16
H fixed	0.87	0.545	0.714	1.05	0.906	0.847	0.915	0.905	0.788	0.931
I fixed	2.1	0.695	2.37	0.834	0.784	1.24	0.941	0.795	0.861	1.04
K fixed	0.286	1.88	0.713	1.25	1.16	0.364	0.824	0.732	0.851	1.01
L fixed	2.04	0.871	2.13	0.875	0.886	1.24	1.04	1.15	1.12	1.09
M fixed	2.06	0.911	1.35	1.11	0.897	1.17	1.03	1.09	0.983	1.07
N fixed	0.289	1.04	0.752	0.882	0.923	0.749	1.05	1.02	0.784	0.914
P fixed	0.371	1.55	0.755	0.89	1.41	1.63	1.13	1.41	1.33	1.24
Q fixed	0.699	0.893	0.494	1.03	0.852	0.661	1.06	0.845	1.09	0.953
R fixed	0.509	2.13	0.985	1.45	1.33	0.414	1.02	0.851	0.929	0.911
S fixed	0.534	1.43	0.836	1.16	1.21	0.813	1.33	1.13	0.844	0.904
T fixed	0.812	1.09	1.2	0.956	1.19	0.865	1.05	0.983	0.678	0.805
V fixed	1.8	0.832	1.67	0.887	0.838	1.35	0.931	0.957	0.922	0.953
W fixed	1.96	0.781	0.953	0.988	0.971	0.756	0.89	1.08	1.22	1.14
pThr fixed	0.349	0.342	0.188	0.413	0.485	0.849	0.695	0.704	0.872	0.823
pTyr fixed	0.608	0.384	0.271	0.735	0.608	2.64	0.751	0.934	0.929	0.925
